Measurements: article PMC2754381

Columns and labels:
[1] = substrate: O=C(O)c1cc(=O)[nH]c(=O)n1[C@@H]1O[C@H](COP(=O)(O)O)[C@@H](O)[C@H]1O; test: purified protein; type: biochemical, Methanothermobacter thermautotrophicus; conditions: 25 °C, pH 7.1, 10 mM MOPS, I = 0.1 (NaCl)
[2] = substrate: O=C(O)c1cc(=O)[nH]c(=O)n1[C@@H]1O[C@H](COP(=O)(O)O)[C@@H](O)[C@H]1O; test: purified protein; type: biochemical, Saccharomyces cerevisiae; conditions: 25 °C, pH 7.1, 10 mM MOPS, I = 0.1 (NaCl)

B1: MtOMPDC (wildtype OMPDC from Methanothermobacter thermautotrophicus) (Methanothermobacter thermautotrophicus str. Delta H) (protein)
chain: MRSRRVDVMDVMNRLILAMDLMNRDDALRVTGEVREYIDTVKIGYPLVLSEGMDIIAEFRKRFGCRIIADFKVADIPETNEKICRATFKAGADAIIVHGFRGADSVRACLNVAEEMGREVFLLTEMSHPGAEMFIQGAADEIARMGVDLGVKNYVGPSTRPERLSRLREIIGQDSFLISPGVGAQGGDPGETLRFADAIIVGRSIYLADNPAAAAAGIIESIKDLLNP
[1]
  Km: 1.5 ± 0.2 µM
  kcat: 4.7 ± 0.3 s⁻¹
  kcat/Km: 3.1e+06 ± 300000 M⁻¹ s⁻¹

B2: ScOMPDC (C155S mutant OMPDC from Saccharomyces cerevisiae) (Saccharomyces cerevisiae S288C; C155S) (protein)
chain: MSKATYKERAATHPSPVAAKLFNIMHEKQTNLCASLDVRTTKELLELVEALGPKICLLKTHVDILTDFSMEGTVKPLKALSAKYNFLLFEDRKFADIGNTVKLQYSAGVYRIAEWADITNAHGVVGPGIVSGLKQAAEEVTKEPRGLLMLAELSSKGSLATGEYTKGTVDIAKSDKDFVIGFIAQRDMGGRDEGYDWLIMTPGVGLDDKGDALGQQYRTVDDVVSTGSDIIIVGRGLFAKGRDAKVEGERYRKAGWEAYLRRCGQQN
[2]
  Km: 1.4 ± 0.2 µM
  kcat: 15 ± 1 s⁻¹
  kcat/Km: 1.1e+07 ± 1e+06 M⁻¹ s⁻¹
